Ends that are not written are not given here.
Molecular target: MBP-VDR-LBDmt (human)
Test: fluorescence polarisation

| Kd | Binder |
| --- | --- |
| < 20 µM | C(Texas Red maleimide)QAANNSLLLHLLKSQTIPK [RIP140-5 peptide, Texas Red labeled] |
| > 20 µM | C(Texas Red maleimide)AASKHKQLSELLRSGSSPN [P300 peptide, Texas Red labeled] |
| > 20 µM | C(Texas Red maleimide)KVSQNPILTSLLQITGNGG [DRIP205-1 peptide, Texas Red labeled] |

Reference: paper PMC2654718 (Biochemistry, 2009)
